Data: publication PMC10842378 (Cell reports, 2023)

Legend:
[1] = target: FLAG-AP-DHX15 LML triple mutant L536A/M537A/L540A (human, UniProt O43143 1-795, L536A | M537A | L540A); assay: proximity labelling
FLAG-AP-DHX15 R222G = FLAG-AP-DHX15 R222G (human, UniProt O43143 1-795, R222G); assay: proximity labelling
FLAG-AP-DHX15 R222G, sequence (O43143 whole entry R222G): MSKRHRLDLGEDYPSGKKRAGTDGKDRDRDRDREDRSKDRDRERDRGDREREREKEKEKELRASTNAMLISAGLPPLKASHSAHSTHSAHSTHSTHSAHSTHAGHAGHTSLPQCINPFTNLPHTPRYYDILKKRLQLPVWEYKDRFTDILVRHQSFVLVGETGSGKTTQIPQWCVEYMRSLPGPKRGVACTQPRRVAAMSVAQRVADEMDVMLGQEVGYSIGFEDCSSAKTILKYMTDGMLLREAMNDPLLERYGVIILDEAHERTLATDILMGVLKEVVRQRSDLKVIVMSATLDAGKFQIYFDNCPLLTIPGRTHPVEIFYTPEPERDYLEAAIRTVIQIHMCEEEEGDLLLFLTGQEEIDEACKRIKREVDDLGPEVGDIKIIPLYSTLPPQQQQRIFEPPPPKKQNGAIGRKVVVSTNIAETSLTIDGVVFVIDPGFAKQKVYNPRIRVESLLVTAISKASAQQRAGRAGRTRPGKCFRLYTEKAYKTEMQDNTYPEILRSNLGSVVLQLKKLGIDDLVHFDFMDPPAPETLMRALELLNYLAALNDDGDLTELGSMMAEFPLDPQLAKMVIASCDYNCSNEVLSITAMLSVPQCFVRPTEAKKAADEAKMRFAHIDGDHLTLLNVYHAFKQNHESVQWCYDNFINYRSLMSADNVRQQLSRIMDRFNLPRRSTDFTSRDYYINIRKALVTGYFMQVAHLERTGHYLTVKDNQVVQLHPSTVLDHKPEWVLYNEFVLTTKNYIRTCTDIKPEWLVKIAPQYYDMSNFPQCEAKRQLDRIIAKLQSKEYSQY

FLAG-AP-DHX15 LML triple mutant L536A/M537A/L540A, sequence (O43143 whole entry L536A/M537A/L540A): as the sequence (O43143 whole entry R222G) above, with G222R, L536A, M537A, L540A counted along it

Row | Binder | level in the streptavidin pull-down (percent) [1] [%] | level in the streptavidin pull-down (percent) (FLAG-AP-DHX15 R222G) [%]
1 | SF3B1 (natural protein, human (endogenous in HEK293T.A2), UniProt O75533 1-1304, looked up) MAKIAKTHEDIEAQIREIQGKKAALDEAQGVGLDSTGYYDQEIYGGSDSRFAGYVTSIAATELEDDDDDYSSSTSLLGQKKPGYHAPVALLNDIPQSTEQYDPFAEHRPPKIADREDEYKKHRRTMIISPERLDPFADGGKTPDPKMNARTYMDVMREQHLTKEEREIRQQLAEKAKAGELKVVNGAAASQPPSKRKRRWDQTADQTPGATPKKLSSWDQAETPGHTPSLRWDETPGRAKGSETPGATPGSKIWDPTPSHTPAGAATPGRGDTPGHATPGHGGATSSARKNRWDETPKTERDTPGHGSGWAETPRTDRGGDSIGETPTPGASKRKSRWDETPASQMGGSTPVLTPGKTPIGTPAMNMATPTPGHIMSMTPEQLQAWRWEREIDERNRPLSDEELDAMFPEGYKVLPPPAGYVPIRTPARKLTATPTPLGGMTGFHMQTEDRTMKSVNDQPSGNLPFLKPDDIQYFDKLLVDVDESTLSPEEQKERKIMKLLLKIKNGTPPMRKAALRQITDKAREFGAGPLFNQILPLLMSPTLEDQERHLLVKVIDRILYKLDDLVRPYVHKILVVIEPLLIDEDYYARVEGREIISNLAKAAGLATMISTMRPDIDNMDEYVRNTTARAFAVVASALGIPSLLPFLKAVCKSKKSWQARHTGIKIVQQIAILMGCAILPHLRSLVEIIEHGLVDEQQKVRTISALAIAALAEAATPYGIESFDSVLKPLWKGIRQHRGKGLAAFLKAIGYLIPLMDAEYANYYTREVMLILIREFQSPDEEMKKIVLKVVKQCCGTDGVEANYIKTEILPPFFKHFWQHRMALDRRNYRQLVDTTVELANKVGAAEIISRIVDDLKDEAEQYRKMVMETIEKIMGNLGAADIDHKLEEQLIDGILYAFQEQTTEDSVMLNGFGTVVNALGKRVKPYLPQICGTVLWRLNNKSAKVRQQAADLISRTAVVMKTCQEEKLMGHLGVVLYEYLGEEYPEVLGSILGALKAIVNVIGMHKMTPPIKDLLPRLTPILKNRHEKVQENCIDLVGRIADRGAEYVSAREWMRICFELLELLKAHKKAIRRATVNTFGYIAKAIGPHDVLATLLNNLKVQERQNRVCTTVAIAIVAETCSPFTVLPALMNEYRVPELNVQNGVLKSLSFLFEYIGEMGKDYIYAVTPLLEDALMDRDLVHRQTASAVVQHMSLGVYGFGCEDSLNHLLNYVWPNVFETSPHVIQAVMGALEGLRVAIGPCRMLQYCLQGLFHPARKVRDVYWKIYNSIYIGSQDALIAHYPRIYNDDKNTYIRYELDYIL | 36 | 76
2 | U2AF2 (natural protein, human (endogenous in HEK293T.A2), UniProt P26368 1-475, looked up) MSDFDEFERQLNENKQERDKENRHRKRSHSRSRSRDRKRRSRSRDRRNRDQRSASRDRRRRSKPLTRGAKEEHGGLIRSPRHEKKKKVRKYWDVPPPGFEHITPMQYKAMQAAGQIPATALLPTMTPDGLAVTPTPVPVVGSQMTRQARRLYVGNIPFGITEEAMMDFFNAQMRLGGLTQAPGNPVLAVQINQDKNFAFLEFRSVDETTQAMAFDGIIFQGQSLKIRRPHDYQPLPGMSENPSVYVPGVVSTVVPDSAHKLFIGGLPNYLNDDQVKELLTSFGPLKAFNLVKDSATGLSKGYAFCEYVDINVTDQAIAGLNGMQLGDKKLLVQRASVGAKNATLVSPPSTINQTPVTLQVPGLMSSQVQMGGHPTEVLCLMNMVLPEELLDDEEYEEIVEDVRDECSKYGLVKSIEIPRPVDGVEVPGCGKIFVEFTSVFDCQKAMQGLTGRKFANRVVVTKYCDPDSYHRRDFW | 47 | 80
